Experimental data reported in the supplement of paper PMC10567573.

B1: FLOT1 (parent)
chain: QMAKKAEAFQLYQEAAQLDMLLEK
B2: ANKRD44 (parent)
chain: FHCIETLVTTGANVNETDDWGRTA

Variants of: B1
Test: protein stability index of a GFP-peptide fusion (GPS, HEK-293T) (PSI 1-6); higher = more stable
Settings: c terminus: a fixed tail appended
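Also: lentivirally expressed fusions sorted by FACS into six bins by GFP to DsRed ratio, PSI derived from sequencing read proportions per bin multiplied by bin number.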

Protein stability index of substitutions, site by site:
M20: A 2.75; T 3.22; S 3.69; L 1.85; Q 3.1
A8: C 1.7; N 1.4; W 1.91; Q 1.64; P 1.98; F 3.96; V 1.2; S 1.49
K24: R 2.13; D 3.76; P 3.37; T 3.03; C 2.28; A 2.53; W 2.57; Y 2.35; Q 2.55; N 2.83; H 2.67; I 3.41
K4: E 2.56; N 2.38; D 2.94; T 1.15; G 2.15; V 1.47
A15: D 4.62; F 2.24; C 2.65; P 4.27; T 2.76; W 2.68; I 2.1; K 1.56
L11: N 2.1; Y 1.81; D 1.82; C 1.92; F 2.15
Y12: T 4.17; F 1.67; S 4.55; I 2.62; R 4.75; A 4.22; E 4.41; K 4.88

Variants of: B2
Test: as above
Settings: c terminus: a fixed tail appended

Protein stability index: each site, then its substitutions
L7: C 2.01; D 4.03; A 2.2; E 3.82; F 2.86
E5: A 2.31; C 2.02; P 2.43; S 1.92; H 2.76; L 4.06; R 1.55; G 2.11; K 2.14; W 2.26; Y 3.36; T 1.82; Q 1.48; D 2.23; I 2.98; N 2.03
F1: I 3.13; P 4.56; R 3.48; M 4.54; D 4.81; V 3.68; S 4.04; L 3.31; W 3.18; A 4.69; Q 4.54; Y 2.07; E 4.77; G 4.25; K 4.18; H 4.18; C 2.18; N 4.5; T 4.25
I4: S 2.69; T 2.87; D 3.41; P 2.19; R 2.61; E 3.59; Y 1.9; L 2.65; W 3.86; H 2.15; V 2.44; G 2.66; Q 2; M 2.16; A 2.1; C 2.33; N 2.87; F 2.36; K 2.11
T6: K 1.93; A 2.16; N 2.52; L 3.01; S 2.71; C 1.75; P 2.08; F 2.03; D 3.61; V 3.28; M 2.18; R 1.96; E 2.69; W 3.88; Y 3.59; Q 2.16; G 1.73; H 2.52
H2: C 2.05; I 1.62; T 3.08; S 3.36; F 1.8; N 3.37; V 1.74; L 2.31; K 3.34; A 2.89; W 1.68; Q 3.27; P 3.77; R 3.46; D 4.54; M 2.64; G 3.71; E 3.9; Y 1.89
C3: K 3.8; M 2.31; P 3.36; S 2.69; N 2.21; R 2.47; W 2.47; G 2.89; Y 2.19; I 1.78; F 2; H 2.79; V 2.62; T 2.65; L 2.05; A 1.79; D 3.62; E 3.96; Q 3.03
